Assays:
[1] = In vitro mouse plasma stability of antibody-CDN conjugates (payload CDN 2.2 retention on mAb by LC-MS); format: in vitro ADME; settings: retention of CDN 2.2 on mAb
Method: (§1) In vitro plasma stability of ADC was performed by spiking mouse plasma with antibody-CDN conjugates (final concentration 100µg/mL). Samples were incubated in a 37°C incubator with 5% CO2, aliquots were taken at various time points and stored frozen for analysis.
(§2) Briefly, 25µL of plasma samples were incubated with biotinylated anti-human Fcy fragment mAb (final concetration 0.18mg/mL, Jackson ImmunoResearch cat # 109-065-098) for 30 min and then mixed with 30 µL Dynabead MyOne Streptavidin T1 (Invitrogen cat # 65604D) and 70 µL PBS. After 1 hour incubation, the beads were separated on a magnet, washed with PBS containing 0.05% Tween20, PBS and water, and ADCs were eluted in the presence of 0.2% of formic acid in water. Eluate was neutralized by adding ammonium formate (400mM final concentration) and ADCs were reduced with TCEP (40mM final concentration) for 30 minutes at room temperature. Samples were then measured by LC-MS and analyzed for compound-to-antibody ratio as described above.

[2] = Compound-to-antibody ratio (DAR) of antibody CDN conjugates by LC-MS
Method: Antibody CDN-conjugates were analyzed to determine the extent of conjugation. A compound-to-antibody ratio was extrapolated from LC-MS data for reduced samples. LC-MS allows quantitation of the average number of molecules of linker-payload attached to an antibody in a conjugate sample. Mass spectral data enables identification of the component species in the mixture, e.g., LC, LC+1, LC+2, HC, HC+1, HC+2, etc. From the average loading on the LC and HC chains, the average compound to antibody ratio can be calculated for an antibody conjugate. A compound-to-antibody ratio for a given conjugate sample represents the average number of compound (linker-payload) molecules attached to a tetrameric antibody containing two light chains and two heavy chains. The samples were reduced with 40 mM TCEP or 5.5 mM DTT, injected onto a MassPREP Micro Desalting column (20 µm, 5-mm by 2.1-mm ID, Waters) equilibrated in 0.1% formic acid (FA) in H2O and eluted by a fast gradient (4min) to 0.1% FA in acetonitrile. The separation was carried out by AQUITY UPLC I-Class system (Waters) and was on-line coupled to Mass Spectrometer Synapt G2 (Waters) to acquire mass spectra using electrospray ionization in positive mode. The TOF mass range was set from m/z 500 to 4000. The raw spectrum was subtracted and deconvoluted (MaxEnt 1, Waters) to produce the final spectrum. Conjugates were profiled using analytical size-exclusion chromatography on Superdex 200 equilibrated in PBS pH7.4; aggregation was analyzed based on analytical size exclusion chromatography.

[3] = In vitro mouse plasma stability of antibody-CDN conjugates (payload CDN 2.2 retention on mAb by LC-MS); format: in vitro ADME
Method: as §1, §2

[4] = target: Her2 (UniProt P04626); experiment: cell-based or functional assay
[5] = target: T1, TROP2 (UniProt P09758 27-323, limits assumed); experiment: cell-based or functional assay
T1 sequence (looked up): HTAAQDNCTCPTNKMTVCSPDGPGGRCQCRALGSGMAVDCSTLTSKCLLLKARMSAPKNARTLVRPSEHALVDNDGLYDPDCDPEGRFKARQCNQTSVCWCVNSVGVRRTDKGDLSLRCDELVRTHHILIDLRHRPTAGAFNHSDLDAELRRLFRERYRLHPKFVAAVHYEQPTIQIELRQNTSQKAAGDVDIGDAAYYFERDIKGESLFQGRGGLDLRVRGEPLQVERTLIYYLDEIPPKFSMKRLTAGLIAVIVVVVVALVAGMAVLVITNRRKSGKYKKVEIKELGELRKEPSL

[6] = monoclonal antibody: anti TROP2 mA5, 37°C
[7] = compound conjugated to anti Her2 mA2 via interchain cysteines

Molecule | HCC1954 IP10 EC50 [5] [nM] | TROP2+ 293T EC50 [5] [nM] | also measured
4-((S)-2-((S)-2-(2-(2,5-dioxo-2,5-dihydro-1H-pyrrol-1-yl)acetamido)-3-methylbutanamido)-5-ureidopentanamido)benzyl (2-(((9-((6R,8R,9S,13aR,15R,16R,16aR,17R)-16,17-difluoro-3,11-dimercapto-3,11-dioxido-8-(6-oxo-1,6-dihydro-9H-purin-9-yl)decahydro-6,9-methanofuro[3,2-m][1,3,6,9,12]pentaoxa[2,10]diphosphacyclopentadecin-15-yl)-9H-purin-6-yl)carbamoyl)oxy)ethyl)(methyl)carbamate [Compound 3.3] | – | – | Mouse plasma T ½ ([1]; monoclonal antibody: anti Her2 mA2, 37°C): >15 days; Mouse plasma T ½ [1, 6]: >15 days; Drug Antibody ratio (DAR) [2, 7]: 3.7; Drug Antibody ratio (DAR) ([2]; compound conjugated to isotype mAb (Table 18)): 4.0
4-((S)-2-((S)-2-(2-(2,5-dioxo-2,5-dihydro-1H-pyrrol-1-yl)acetamido)-3-methylbutanamido)-5-ureidopentanamido)benzyl (9-((6R,8R,9S,13aR,15R,16R,16aR,17R)-16,17-difluoro-3,11-dimercapto-3,1 1-dioxido-8-(6-oxo-1,6-dihydro-9H-purin-9-yl)decahydro-6,9-methanofuro[3,2-m][1,3,6,9,12]pentaoxa[2,10]diphosphacyclopentadecin-15-yl)-9H-purin-6-yl)carbamate [Compound 3.13] | – | – | Mouse plasma T ½ [1, 6]: 9.6 days
CC(C)[C@H](NC(=O)CN1C(=O)C=CC1=O)C(=O)N[C@@H](CCCNC(N)=O)C(=O)Nc1ccc(COC(=O)N(C)CCOC(=O)Nc2ncnc3c2ncn3[C@@H]2O[C@H]3COP(=O)(S)O[C@@H]4[C@H](F)[C@@H](COP(=O)(S)OC[C@H]3[C@H]2F)O[C@H]4n2cnc3c(=O)[nH]cnc32)cc1 (stereo partly drawn) [Compound 3.3, 4-((S)-2-((S)-2-(2-(2,5-dioxo-2,5-dihydro-1H-pyrrol-1-yl)acetamido)-3-methylbutanamido)-5-ureidopentanamido)benzyl (2-(((9-((6R,8R,9S,13aR,15R,16R,16aR,17R)-16,17-difluoro-3,11-dimercapto-3,11-dioxido-8-(6-oxo-1,6-dihydro-9H-purin-9-yl)decahydro-6,9-methanofuro[3,2-m][1,3,6,9,12]pentaoxa[2,10]diphosphacyclopentadecin-15-yl)-9H-purin-6-yl)carbamoyl)oxy)ethyl)(methyl)carbamate] | – | – | attachment to anti Her2 mAb2 in mouse plasma ([3]; attached to anti Her2 mAb2 via interchain cysteines (Fig. 3)): stable over period up to 15 days; retention on anti-TROP2 mAb5 ([3]; attached to engineered light chain V110C and heavy chain S375C of mAb5 (Fig. 4)): excellent retention
(2S)-N-((2S)-1-((4-((((6R,8R,9S,13aR,15R,16R,16aR,17R)-15-(6-amino-9H-purin-9-yl)-16,17-difluoro-3-mercapto-3,11-dioxido-8-(6-oxo-1,6-dihydro-9H-purin-9-yl)decahydro-6,9-methanofuro[3,2-m][1,3,6,9,12]pentaoxa[2,10]diphosphacyclopentadecin-11-yl)thio)methyl)phenyl)amino)-1-oxopropan-2-yl)-2-(2-(2,5-dioxo-2,5-dihydro-1H-pyrrol-1-yl)acetamido)-3-methylbutanamide [Compound 3.19, reference compound] | – | – | Drug Antibody ratio (DAR) [2, 7]: 2.5
isotype mAb Libivirumab (anti HBsAg mAb) conjugated with Compound 3.4 (antibody, human IgG1, kappa, V domains shown) VH: QVQLVESGGGVVRPGRSLRLSCAASGFAFSDYSINWVRQAPGKGLEWVAIISYDGRITYYRDSVKGRFTISRDDSKNTLYLQMNSLRTEDTAVYYCARQYYDFWSGSSVGRNYDGMDVWGLGTTVTVSS VL: DIVMTQSPLSLSVTPGEPASISCRSSQSLLHRSGNNYLDWYLQKPGHSPQLLIYVGSNRASGVPDRFSGSGSGTEYTLKISRVEAEDVGVYYCMQALQTPRTFGQGTKLEIKR | – | – | HCC1954 IP10 EC50 [4]: > 1000 nM
isotype mAb Libivirumab (anti HBsAg mAb) conjugated with Compound 3.13 (antibody, human IgG1, kappa, V domains shown) VH: QVQLVESGGGVVRPGRSLRLSCAASGFAFSDYSINWVRQAPGKGLEWVAIISYDGRITYYRDSVKGRFTISRDDSKNTLYLQMNSLRTEDTAVYYCARQYYDFWSGSSVGRNYDGMDVWGLGTTVTVSS VL: DIVMTQSPLSLSVTPGEPASISCRSSQSLLHRSGNNYLDWYLQKPGHSPQLLIYVGSNRASGVPDRFSGSGSGTEYTLKISRVEAEDVGVYYCMQALQTPRTFGQGTKLEIKR | > 1000 | > 1000 | –
isotype mAb Libivirumab (anti HBsAg mAb) conjugated with Compound 3.3 (antibody, human IgG1, kappa, V domains shown) VH: QVQLVESGGGVVRPGRSLRLSCAASGFAFSDYSINWVRQAPGKGLEWVAIISYDGRITYYRDSVKGRFTISRDDSKNTLYLQMNSLRTEDTAVYYCARQYYDFWSGSSVGRNYDGMDVWGLGTTVTVSS VL: DIVMTQSPLSLSVTPGEPASISCRSSQSLLHRSGNNYLDWYLQKPGHSPQLLIYVGSNRASGVPDRFSGSGSGTEYTLKISRVEAEDVGVYYCMQALQTPRTFGQGTKLEIKR | > 1000 | > 1000 | HCC1954 IP10 EC50 [4]: > 1000 nM
anti-TROP2 mAb5 (Sacituzumab, heavy chain S375C, light chain V110C) conjugated with Compound 3.3 (antibody, human IgG1, V domains shown, Compound 3.3 on engineered C110 (EU numbering); Compound 3.3 on engineered C375 (EU numbering); DAR 3.7 for the whole antibody) VH: QVQLQQSGSELKKPGASVKVSCKASGYTFTNYGMNWVKQAPGQGLKWMGWINTYTGEPTYTDDFKGRFAFSLDTSVSTAYLQISSLKADDTAVYFCARGGFGSSYWYFDVWGQGSLVTVSS VL: DIQLTQSPSSLSASVGDRVSITCKASQDVSIAVAWYQQKPGKAPKLLIYSASYRYTGVPDRFSGSGSGTDFTLTISSLQPEDFAVYYCQQHYITPLTFGAGTKVEIKR | 8 | 8 | –
anti-TROP2 mAb5 (Sacituzumab, heavy chain S375C, light chain V110C) conjugated with Compound 3.13 (antibody, human IgG1, V domains shown, Compound 3.13 on engineered C110 (EU numbering); Compound 3.13 on engineered C375 (EU numbering); DAR 3.3 for the whole antibody) VH: QVQLQQSGSELKKPGASVKVSCKASGYTFTNYGMNWVKQAPGQGLKWMGWINTYTGEPTYTDDFKGRFAFSLDTSVSTAYLQISSLKADDTAVYFCARGGFGSSYWYFDVWGQGSLVTVSS VL: DIQLTQSPSSLSASVGDRVSITCKASQDVSIAVAWYQQKPGKAPKLLIYSASYRYTGVPDRFSGSGSGTDFTLTISSLQPEDFAVYYCQQHYITPLTFGAGTKVEIKR | 2 | 3 | –
anti-TROP2 mAb5 (Sacituzumab, heavy chain S375C, light chain V110C) conjugated with Compound 3.18 (antibody, human IgG1, V domains shown, Compound 3.18 on engineered C110 (EU numbering); Compound 3.18 on engineered C375 (EU numbering); DAR 3.6 for the whole antibody) VH: QVQLQQSGSELKKPGASVKVSCKASGYTFTNYGMNWVKQAPGQGLKWMGWINTYTGEPTYTDDFKGRFAFSLDTSVSTAYLQISSLKADDTAVYFCARGGFGSSYWYFDVWGQGSLVTVSS VL: DIQLTQSPSSLSASVGDRVSITCKASQDVSIAVAWYQQKPGKAPKLLIYSASYRYTGVPDRFSGSGSGTDFTLTISSLQPEDFAVYYCQQHYITPLTFGAGTKVEIKR | 6 | 2 | –
anti-TROP2 mAb5 (Sacituzumab, heavy chain S375C, light chain V110C) conjugated with Compound 3.17 (antibody, human IgG1, V domains shown, Compound 3.17 on engineered C110 (EU numbering); Compound 3.17 on engineered C375 (EU numbering); DAR 3.6 for the whole antibody) VH: QVQLQQSGSELKKPGASVKVSCKASGYTFTNYGMNWVKQAPGQGLKWMGWINTYTGEPTYTDDFKGRFAFSLDTSVSTAYLQISSLKADDTAVYFCARGGFGSSYWYFDVWGQGSLVTVSS VL: DIQLTQSPSSLSASVGDRVSITCKASQDVSIAVAWYQQKPGKAPKLLIYSASYRYTGVPDRFSGSGSGTDFTLTISSLQPEDFAVYYCQQHYITPLTFGAGTKVEIKR | 8 | 3 | –
anti-TROP2 mAb5 (Sacituzumab, heavy chain S375C, light chain V110C) conjugated with Compound 3.16 (antibody, human IgG1, V domains shown, Compound 3.16 on engineered C110 (EU numbering); Compound 3.16 on engineered C375 (EU numbering); DAR 3.3 for the whole antibody) VH: QVQLQQSGSELKKPGASVKVSCKASGYTFTNYGMNWVKQAPGQGLKWMGWINTYTGEPTYTDDFKGRFAFSLDTSVSTAYLQISSLKADDTAVYFCARGGFGSSYWYFDVWGQGSLVTVSS VL: DIQLTQSPSSLSASVGDRVSITCKASQDVSIAVAWYQQKPGKAPKLLIYSASYRYTGVPDRFSGSGSGTDFTLTISSLQPEDFAVYYCQQHYITPLTFGAGTKVEIKR | 5 | 4 | –
